Target: T1, GST-RanBP2-M1_(900–1826) (human, UniProt P49792 900-1826)
T1 sequence (looked up): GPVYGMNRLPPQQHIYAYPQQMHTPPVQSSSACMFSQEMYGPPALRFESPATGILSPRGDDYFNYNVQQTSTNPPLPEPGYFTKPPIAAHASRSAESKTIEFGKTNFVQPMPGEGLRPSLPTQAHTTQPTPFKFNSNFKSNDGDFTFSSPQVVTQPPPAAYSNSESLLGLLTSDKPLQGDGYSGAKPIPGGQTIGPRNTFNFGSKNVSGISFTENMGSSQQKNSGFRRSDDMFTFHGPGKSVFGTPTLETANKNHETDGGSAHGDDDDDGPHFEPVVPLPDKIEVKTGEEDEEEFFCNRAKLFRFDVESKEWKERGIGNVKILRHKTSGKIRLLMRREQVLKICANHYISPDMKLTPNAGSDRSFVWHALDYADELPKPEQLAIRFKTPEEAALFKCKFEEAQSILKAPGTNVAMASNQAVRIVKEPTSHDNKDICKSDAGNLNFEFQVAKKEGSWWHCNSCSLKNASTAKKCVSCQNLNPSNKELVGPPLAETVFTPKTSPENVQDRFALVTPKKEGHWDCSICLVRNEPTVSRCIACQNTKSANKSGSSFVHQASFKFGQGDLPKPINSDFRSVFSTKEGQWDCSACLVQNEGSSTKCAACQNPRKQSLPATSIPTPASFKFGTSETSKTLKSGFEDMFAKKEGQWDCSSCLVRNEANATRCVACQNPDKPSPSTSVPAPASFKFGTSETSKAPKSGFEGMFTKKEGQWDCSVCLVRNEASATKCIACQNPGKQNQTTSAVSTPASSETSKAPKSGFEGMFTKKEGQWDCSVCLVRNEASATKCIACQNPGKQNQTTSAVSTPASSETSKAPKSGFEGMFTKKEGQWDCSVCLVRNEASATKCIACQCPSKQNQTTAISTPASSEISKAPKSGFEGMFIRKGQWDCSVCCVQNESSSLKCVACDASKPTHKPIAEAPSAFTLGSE
Test: pull-down

binding result: binds
B1: His-Imp-β1-N2_(1–650) (domain or fragment, human, UniProt Q14974 1-650, looked up)
chain: MELITILEKTVSPDRLELEAAQKFLERAAVENLPTFLVELSRVLANPGNSQVARVAAGLQIKNSLTSKDPDIKAQYQQRWLAIDANARREVKNYVLQTLGTETYRPSSASQCVAGIACAEIPVNQWPELIPQLVANVTNPNSTEHMKESTLEAIGYICQDIDPEQLQDKSNEILTAIIQGMRKEEPSNNVKLAATNALLNSLEFTKANFDKESERHFIMQVVCEATQCPDTRVRVAALQNLVKIMSLYYQYMETYMGPALFAITIEAMKSDIDEVALQGIEFWSNVCDEEMDLAIEASEAAEQGRPPEHTSKFYAKGALQYLVPILTQTLTKQDENDDDDDWNPCKAAGVCLMLLATCCEDDIVPHVLPFIKEHIKNPDWRYRDAAVMAFGCILEGPEPSQLKPLVIQAMPTLIELMKDPSVVVRDTAAWTVGRICELLPEAAINDVYLAPLLQCLIEGLSAEPRVASNVCWAFSSLAEAAYEAADVADDQEEPATYCLSSSFELIVQKLLETTDRPDGHQNNLRSSAYESLMEIVKNSAKDCYPAVQKTTLVIMERLQQVLQMESHIQSTSDRIQFNDLQSLLCATLQNVLRKVQHQDALQISDVVMASLLRMFQSTAGSGGVQEDALMAVSTLVEVLGGEFLKYMEAF

From PMC3824679 (Cell Death & Disease, 2013)
